This passage reports Kd results from patent publication US20170145092A1 (CHINA SYNTHETIC RUBBER, published 2017).

For the assay, the target named is T1, recombinant PLVAP51-442 protein (human, UniProt Q9BX97 51-442).
T1 construct: also called recombinant PLVAP protein; recombinant human PLVAP protein
T1 sequence: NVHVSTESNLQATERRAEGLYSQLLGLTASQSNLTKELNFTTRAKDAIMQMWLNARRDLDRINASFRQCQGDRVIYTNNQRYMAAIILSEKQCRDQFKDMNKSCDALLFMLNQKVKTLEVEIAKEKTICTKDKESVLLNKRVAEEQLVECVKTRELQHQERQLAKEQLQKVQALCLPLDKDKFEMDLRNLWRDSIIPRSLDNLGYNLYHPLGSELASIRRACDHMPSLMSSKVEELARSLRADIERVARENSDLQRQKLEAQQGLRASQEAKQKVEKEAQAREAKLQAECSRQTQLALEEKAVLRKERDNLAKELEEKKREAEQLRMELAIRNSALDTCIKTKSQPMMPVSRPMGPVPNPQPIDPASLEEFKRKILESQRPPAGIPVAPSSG
Put plainly: ANTQ300 quartz crystal microbalance. How it is done: Binding affinities of KFCC-GY4 and KFCC-GY5 anti-PLVAP monoclonal antibodies were measured at the ANT Technology Co., Ltd. (Taipei, Taiwan) using ANTQ300 quartz crystal microbalance technology (Lin S., et al. J Immunol Methods 239:121-124 (2000)).

B1: KFCC-GY5 monoclonal antibody (antibody, V domains shown)
VH: QVQLQQPGAELVRPGASVKLSCKASGYTFTSNYINWVKQRPGQGLEWIGNIYPSDGFTNYNQKFKDRATLTVDKSSSTAYMQLSSPTSEDSAVYYCTRNFDVWGAGTTVTVSS
VL: DVVMTQTPLSLPVSLGDQASISCRSSQSLVHSNGNTYLQWYLQKPGQSPKLLIYTVSNRFSGVPDRFSGSGSGPDFTLKISRVEAEDLGVYFCSQSTHVPFTFGSGTKLEIK
notes: Mouse monoclonal antibody from a hybridoma, purified by Protein G; also called KFCC-GY5 mAb; KFCC-GY5 monoclonal anti-PLVAP antibody
A word on the Kd: it is the equilibrium constant for the complex coming apart. With B1, the Kd was 41 nM.

B2: KFCC-GY4 monoclonal antibody (antibody, V domains shown)
VH: EVQLQQSGAEFVRSGASVKLSCTASGFNIKDYYIHWVKQRPEQGLEWIGWIDPENGDIEYAPKFQGKATMTADTSSNTAYLQFSSLTSEDTAVYYCLYQEGSWGQGTTLTVSS
VL: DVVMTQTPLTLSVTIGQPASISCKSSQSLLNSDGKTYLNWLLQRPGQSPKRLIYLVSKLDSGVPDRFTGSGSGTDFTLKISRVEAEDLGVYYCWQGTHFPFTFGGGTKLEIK
notes: Mouse monoclonal antibody from a hybridoma, purified by Protein G; also called KFCC-GY4 mAb; KFCC-GY4 monoclonal anti-PLVAP antibody
With B2, the equilibrium dissociation constant (Kd) is 60 nM.
